T1: IL-33 (mm2), human IL-33 variant with all four cysteines changed to serine (human, UniProt O95760 112-270, limits assumed)
T1 sequence (looked up): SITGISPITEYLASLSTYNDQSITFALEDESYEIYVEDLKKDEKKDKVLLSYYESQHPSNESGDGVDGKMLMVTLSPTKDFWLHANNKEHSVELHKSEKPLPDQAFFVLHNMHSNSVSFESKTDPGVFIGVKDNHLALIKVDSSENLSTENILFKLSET

T2: human IL-4 (human, UniProt P05112 25-153)
T2 sequence (looked up): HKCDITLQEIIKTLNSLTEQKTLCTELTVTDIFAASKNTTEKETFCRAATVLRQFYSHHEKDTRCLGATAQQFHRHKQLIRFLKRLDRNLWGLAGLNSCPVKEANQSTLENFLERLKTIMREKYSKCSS


Legend:
Assay in all cases: cell-based or functional assay
[1] = target: T3, recombinant human TSLP (glycosylated long form) (human, UniProt Q969D9 29-159)
[2] = target: T3, recombinant human TSLP (glycosylated …); remark: listed apart in the source
human IL-13 = human IL-13 (human, UniProt P35225 35-146)
Sequence of human IL-13 (P35225 35-146 limits assumed): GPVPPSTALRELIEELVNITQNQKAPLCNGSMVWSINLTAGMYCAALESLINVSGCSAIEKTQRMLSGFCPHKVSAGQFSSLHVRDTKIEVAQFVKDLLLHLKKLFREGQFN

[3] = target: T1, IL-33 (mm2), human IL-33 variant with …
human IL-4 = target: T2, human IL-4

Row | Binder | TARC bioassay (IC50, pM) [1] [pM] | a-TSLP TARC bioassay (fold change to TSLP-0001) [2] [fold] | a-hIL-13 bioassay (IC50, pM) (human IL-13) [pM] | a-IL-33 bioassay cys mutant IL33) IC50 (pM) [3] [pM] | a-hIL-4 bioassay IC50, pM) (human IL-4) [pM]
1 | TSLP-0260 (antibody, V domains shown) VH: QMQLVESGGGVVQPGRSLRLSCAASGFTFRTYGMHWVRQAPGKGLEWVAVIWYDGSNKHYADSVKGRFTISRDNSKNTLYLQMNSLRAEDTAVYYCARAPQWYLVHEAFDIWGQGTMVTVSS VL: SYVLTQPPSVSVAPGQTARITCGGNNLGSKSVHWYQQKPGQAPVLVVYDDSDRPSWIPERFSGSNSGNTATLTISRGEAGDEADYYCQVWDESSDHVVFGGGTKLTVLG | 6.65 | 3.4 |  |  | 
2 | IL13433-0005 (other) heavy: EVTLRESGPALVKPTQTLTLTCTFSGFSLSNFGEGLSWIRQPPGKGLEWLAHIYWDDDKRYNPSLKSRLTISKDTSRNQVVLTMTNMDPVDTATYYCARRETVFYWYFDVWGQGTTVTVSSASTKGPSVFPEAPSSKSTSGGTAALGCLVKDYFPEPVTVSWNSGALTSGVHTFPAVLQSSGLYSLGSVVTVPSSSLGTQTYICNVNHKPSNTKVDKKVEPKSCDKTHTCPPCPAPEAAGAPSVFLFPPKPKDTLMISRTPEVTCVVVDVSHEDPEVKFNWYVDGVEVHNAKTKPREEQYNSTYRVVSVLTVLHQDWLNGKEYKCKVSNKALPAPIEKTISKAKGQPREPQVYTLPPCREEMTKNQVSLSCAVKGFYPSDIAVEWESNGQPENNYKTTPPVLDSDGSFFLVSKLTVDKSRWQQGNVFSCSVMHEALHNHYTQKSLSLSPGK chain 1: DIQMTQSPSSLSASVGDRVTITCKASQNINKHLDWYQQKPGKAPKLLIYFTNNLQTGVPSRFSGSGSGTDFTLTISSLQPEDFATYYCFQYNQGWTFGGGTKVEIKRTVAAPSVFIFPPSDEQLKSGTASVVCLLNNFYPREAKVQWKVDNALQSGNSQESVTEQDSKDSTYSLSSTLTLSKADYEKHKVYACEVTHQGLSSPVTKSFNRGECGGGGSEVQLVESGGGLVQPGGSLRLSCAASGFTFSSYAMSWVRQAPGKGLEWVASISSGDTTYYPDSVKGRFTISRDNAKNSLYLQMNSLRAEDTAVYYCARNEGYYFGLTLWGQGTLVTVSSASTKGPSVFPKAPSSKSTSGGTAALGCLVKDYFPEPVTVSWNSGALTSGVHTFPAVLQSSGLYSLSSSVTVPSSSLGTQTYICNVNHKPSNTKVDKKVEPKSCDKTHTCPPCPAPEAAGAPSVFLFPPKPKDTLMISRTPEVTCVVVDVSHEDPEVKFNWYVDGVEVHNAKTKPREEQYNSTYRVVSVLTVLHQDWLNGKEYKCKVSNKALPAPIEKTISKAKGQPREPQVCTLPPSREEMTKNQVSLWCLVKGFYPSDIAVEWESNGQPENNYKTTPPVLDSDGSFFLYSKLTVDKSRWQQGNVFSCSVMHEALHNHYTQKSLSLSPGK light 1: DIQMTQSPSSLSASVGDRVTITCKASQSVDEDGDSYMNWYQQKPGKAPKLLIYAASNLESGVPSRFSGSGSGTDFTLTISSLQPEDFATYYCQQSNEDPPTFGGGTKVEIKRTVAAPSVFIFPPSDEQLKSGTASVSCLLNNFYPREAKVQWKVDNALQSGNSQESVTEQDSKDSTYSLKSTLTLSKADYEKHKVYACEVTHQGLSSPVTKSFNRGEC light 2: DIQMTQSPSSLSASVGDRVTITCKASESVDHFGWSLVHWYQQKPGKAPKLLIYRASNLESGVPSRFSGSGSGTDFTLTISSLQPEDFATYYCQQSNEDPWTFGGGTKVEIKRTVAAPSVFIFPPSDEQLKSGTASVSCLLNNFYPREAKVQWKVDNALQSGNSQESVTEQDSKDSTYSLDSTLTLSKADYEKHKVYACEVTHQGLSSPVTKSFNRGEC chain 2: EVQLVESGGGLVQPGGSLRLSCAASGFTFSSYWMYWVRQAPGKGLEWVAAITPNAGEDYYPESVKGRFTISRDNAKNSLYLQMNSLRAEDTAVYYCARGHYYYTSYSLGYWGQGTLVTVSSASTKGPSVFPLAPSSKSTSGGTAALGCLVKDYFPEPVTVSWNSGALTSGVHTFPAVLQSSGLYSLSSVVTVPSSSLGTQTYICNVNHKPSNTKVDKKVEPKSC |  |  | 12.5 | 45 | 3.2
3 | IL13433-0607 (other) heavy: EVQLVESGGGLVQPGGSLRLSCAASGFTFSSYAMSWVRQAPGKGLEWVASISTGDTTYYPDSVKGRFTISRDNAKNSLYLQMNSLRAEDTAVYYCARNEGYYFGLTQWGRGTLVTVSSASTKGPSVFPKAPSSKSTSGGTAALGCLVKDYFPEPVTVSWNSGALTSGVHTFPAVLQSSGLYSLSSSVTVPSSSLGTQTYICNVNHKPSNTKVDKKVEPKSCDKTHTCPPCPAPEAAGAPSVFLFPPKPKDTLMISRTPEVTCVVVDVSHEDPEVKFNWYVDGVEVHNAKTKPREEQYNSTYRVVSVLTVLHQDWLNGKEYKCKVSNKALPAPIEKTISKAKGQPREPQVCTLPPSREEMTKNQVSLWCLVKGFYPSDIAVEWESNGQPENNYKTTPPVLDSDGSFFLYSKLTVDKSRWQQGNVFSCSVLHEALHSHYTQKSLSLSPGK chain 1: DIQMTQSPSSLSASVGDRVTITCRASQPISKHLDWYQQKPGKAPKLLIYFTNNLQTGVPSRFSGSGSGTDFTLTISSLQPEDFATYYCFQYNQGWTFGGGTKVEIKRTVAAPSVFIFPPSDEQLKSGTASVVCLLNNFYPREAKVQWKVDNALQSGNSQESVTEQDSKDSTYSLSSTLTLSKADYEKHKVYACEVTHQGLSSPVTKSFNRGECGGGGSEVTLRESGPALVKPTQTLTLTCTFSGFSLSNFGEGLSWIRQPPGKGLEWLAHIYWDDDKRYSTSLKTRLTISKDTSRNQVVLTMTNMDPVDTATYYCARRETVFYWYFDVWGQGTTVTVSSASTKGPSVFPEAPSSKSTSGGTAALGCLVKDYFPEPVTVSWNSGALTSGVHTFPAVLQSSGLYSLGSVVTVPSSSLGTQTYICNVNHKPSNTKVDKKVEPKSCDKTHTCPPCPAPEAAGAPSVFLFPPKPKDTLMISRTPEVTCVVVDVSHEDPEVKFNWYVDGVEVHNAKTKPREEQYNSTYRVVSVLTVLHQDWLNGKEYKCKVSNKALPAPIEKTISKAKGQPREPQVYTLPPCREEMTKNQVSLSCAVKGFYPSDIAVEWESNGQPENNYKTTPPVLDSDGSFFLVSKLTVDKSRWQQGNVFSCSVLHEALHSHYTQKSLSLSPGK light 1: DIQMTQSPSSLSASVGDRVTITCRASESVDHFGWSLVHWYQQKPGKAPKLLIYRADSLETGVPSRFSGSGSGTDFTLTISSLQPEDFATYYCQQSNEDPWTFGGGTKVEIKRTVAAPSVFIFPPSDEQLKSGTASVSCLLNNFYPREAKVQWKVDNALQSGNSQESVTEQDSKDSTYSLDSTLTLSKADYEKHKVYACEVTHQGLSSPVTKSFNRGEC light 2: DIQMTQSPSSLSASVGDRVTITCRASQSVDEEGDSYMNWYQQKPGKAPKLLIYAASNLESGVPSRFSGSGSGTDFTLTISSLQPEDFATYYCQQSHKDPPTFGGGTKVEIKRTVAAPSVFIFPPSDEQLKSGTASVSCLLNNFYPREAKVQWKVDNALQSGNSQESVTEQDSKDSTYSLKSTLTLSKADYEKHKVYACEVTHQGLSSPVTKSFNRGEC chain 2: EVQLVESGGGLVQPGGSLRLSCAASGFTFSSYWMYWVRQAPGKGLEWVAAITPNAGEDYYPESVKGRFTISRDNAKNSLYLQMNSLRAEDTAVYYCARGHYYYTSYSLGYWGQGTLVTVSSASTKGPSVFPLAPSSKSTSGGTAALGCLVKDYFPEPVTVSWNSGALTSGVHTFPAVLQSSGLYSLSSVVTVPSSSLGTQTYICNVNHKPSNTKVDKKVEPKSC |  |  | 20.3 | 182 | 66.9

From patent US20240117030A1 (Pfizer, published 2024)
